Target: endogenous Xenopus type 1 inositol 1,4,5-trisphosphate receptor (Xenopus laevis (endogenous in oocytes)) (UniProt Q91908)
Test: co-IP

recombinant rat type 3 inositol 1,4,5-trisphosphate receptor, Q63269 1-2670, sequence (Q63269 whole entry): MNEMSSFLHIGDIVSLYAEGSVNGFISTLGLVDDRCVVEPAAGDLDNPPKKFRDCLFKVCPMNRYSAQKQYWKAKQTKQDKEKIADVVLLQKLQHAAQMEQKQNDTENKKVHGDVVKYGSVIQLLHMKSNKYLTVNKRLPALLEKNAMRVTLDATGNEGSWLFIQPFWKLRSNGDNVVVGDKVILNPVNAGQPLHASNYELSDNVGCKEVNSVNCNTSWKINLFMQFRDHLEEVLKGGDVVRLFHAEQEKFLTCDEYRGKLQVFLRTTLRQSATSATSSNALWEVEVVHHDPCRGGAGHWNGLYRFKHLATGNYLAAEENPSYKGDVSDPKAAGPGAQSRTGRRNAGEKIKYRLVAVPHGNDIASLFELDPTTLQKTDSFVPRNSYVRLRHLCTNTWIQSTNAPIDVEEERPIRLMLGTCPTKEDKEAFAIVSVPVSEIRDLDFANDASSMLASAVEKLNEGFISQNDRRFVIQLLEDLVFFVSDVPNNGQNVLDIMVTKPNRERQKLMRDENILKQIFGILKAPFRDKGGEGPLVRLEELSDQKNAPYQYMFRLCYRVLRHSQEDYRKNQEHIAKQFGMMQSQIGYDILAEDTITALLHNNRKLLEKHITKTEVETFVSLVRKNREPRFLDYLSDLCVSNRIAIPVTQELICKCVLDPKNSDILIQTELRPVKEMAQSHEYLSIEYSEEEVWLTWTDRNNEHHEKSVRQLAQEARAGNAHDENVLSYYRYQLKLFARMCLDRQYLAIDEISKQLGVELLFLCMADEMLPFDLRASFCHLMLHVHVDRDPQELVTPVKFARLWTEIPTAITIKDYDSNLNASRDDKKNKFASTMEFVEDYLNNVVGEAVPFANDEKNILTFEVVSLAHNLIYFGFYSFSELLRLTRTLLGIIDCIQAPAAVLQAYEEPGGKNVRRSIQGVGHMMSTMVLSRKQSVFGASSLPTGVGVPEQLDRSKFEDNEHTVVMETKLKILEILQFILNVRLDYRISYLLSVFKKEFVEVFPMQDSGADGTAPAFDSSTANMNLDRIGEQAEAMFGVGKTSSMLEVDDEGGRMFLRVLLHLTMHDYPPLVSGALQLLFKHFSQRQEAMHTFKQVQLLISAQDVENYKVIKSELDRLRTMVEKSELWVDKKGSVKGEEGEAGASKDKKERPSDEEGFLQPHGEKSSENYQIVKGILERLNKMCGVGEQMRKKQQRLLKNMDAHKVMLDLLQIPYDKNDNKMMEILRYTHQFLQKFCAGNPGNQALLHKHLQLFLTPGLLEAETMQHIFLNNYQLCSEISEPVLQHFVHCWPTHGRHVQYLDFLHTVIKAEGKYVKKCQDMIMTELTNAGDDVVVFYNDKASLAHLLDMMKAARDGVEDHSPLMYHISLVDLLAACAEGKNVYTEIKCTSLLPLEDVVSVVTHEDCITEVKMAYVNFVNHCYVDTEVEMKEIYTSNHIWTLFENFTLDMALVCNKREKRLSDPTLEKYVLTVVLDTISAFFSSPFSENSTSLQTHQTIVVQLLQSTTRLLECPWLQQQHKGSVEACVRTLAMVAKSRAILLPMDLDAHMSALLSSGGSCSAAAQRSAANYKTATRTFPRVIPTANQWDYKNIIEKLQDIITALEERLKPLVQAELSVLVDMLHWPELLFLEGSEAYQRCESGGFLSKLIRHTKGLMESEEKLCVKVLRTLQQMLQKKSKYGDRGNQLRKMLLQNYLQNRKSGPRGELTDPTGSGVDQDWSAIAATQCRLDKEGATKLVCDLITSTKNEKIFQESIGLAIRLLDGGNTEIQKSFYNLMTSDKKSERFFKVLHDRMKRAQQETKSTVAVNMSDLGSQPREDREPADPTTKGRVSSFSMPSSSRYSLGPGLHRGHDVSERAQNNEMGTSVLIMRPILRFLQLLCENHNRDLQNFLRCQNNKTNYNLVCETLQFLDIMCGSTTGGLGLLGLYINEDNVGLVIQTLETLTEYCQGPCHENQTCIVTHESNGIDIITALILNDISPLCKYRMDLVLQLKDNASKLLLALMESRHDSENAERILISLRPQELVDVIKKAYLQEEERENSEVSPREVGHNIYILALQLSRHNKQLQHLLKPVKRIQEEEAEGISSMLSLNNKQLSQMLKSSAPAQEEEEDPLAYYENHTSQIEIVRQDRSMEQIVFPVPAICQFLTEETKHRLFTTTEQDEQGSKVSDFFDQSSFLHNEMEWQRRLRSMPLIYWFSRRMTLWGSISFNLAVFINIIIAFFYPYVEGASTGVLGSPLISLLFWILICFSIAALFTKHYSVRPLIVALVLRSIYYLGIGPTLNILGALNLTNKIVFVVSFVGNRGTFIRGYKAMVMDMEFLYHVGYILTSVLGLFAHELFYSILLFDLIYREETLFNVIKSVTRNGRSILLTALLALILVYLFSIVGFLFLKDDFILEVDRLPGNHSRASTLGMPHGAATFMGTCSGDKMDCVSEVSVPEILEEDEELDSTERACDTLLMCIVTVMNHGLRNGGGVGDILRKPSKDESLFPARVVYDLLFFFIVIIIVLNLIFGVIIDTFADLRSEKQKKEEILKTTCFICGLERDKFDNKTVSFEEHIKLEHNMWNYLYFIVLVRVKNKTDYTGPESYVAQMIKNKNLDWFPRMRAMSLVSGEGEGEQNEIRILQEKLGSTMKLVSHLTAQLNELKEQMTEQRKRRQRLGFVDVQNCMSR

How did the percent of expressed r-InsP3R-3 in heteroligomers with X-InsP3R-1 turn out when “recombinant rat type 3 inositol 1,4,5-trisphosphate receptor, Q63269 1-2670” was run?
The percent of expressed r-InsP3R-3 in heteroligomers with X-InsP3R-1 was 7 to 10%.

Reference: publication PMC2217211
